The test deals with His-SUMO-WDR5(22–334) (human, UniProt P61964 22-334). The test can be described thus: AlphaScreen or HTRF.

ARTEVHLRKS [10-mer-Thr-FAM (ARTEVHLRKS-(Ahx-Ahx)(Lys-(5-FAM)))]: the binding result is recorded as “binds”.

Values taken from PMC6448596 (Cell reports, 2019).
